Laboratory results published in patent US20240117038A1 (Ablynx, published 2024).

T1: cynomolgus CX3CR1 (cynomolgus monkey (Macaca fascicularis), UniProt P49238 1-355 (human entry))
T1 construct: Overexpressed on CHO K1 cells; also called cyno CX3CR1; cyCX3CR1
T1 chain: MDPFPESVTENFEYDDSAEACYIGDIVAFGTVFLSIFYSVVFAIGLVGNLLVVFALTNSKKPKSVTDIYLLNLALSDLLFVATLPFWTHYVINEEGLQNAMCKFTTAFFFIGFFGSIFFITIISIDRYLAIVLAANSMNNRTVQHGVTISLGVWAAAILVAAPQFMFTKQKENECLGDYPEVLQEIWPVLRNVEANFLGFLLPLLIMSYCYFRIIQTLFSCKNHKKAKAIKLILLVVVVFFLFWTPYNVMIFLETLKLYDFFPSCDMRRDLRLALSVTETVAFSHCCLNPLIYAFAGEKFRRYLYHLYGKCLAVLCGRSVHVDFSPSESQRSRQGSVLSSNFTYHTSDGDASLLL

T2: human CX3CR1 (human, UniProt P49238 1-355)
T2 construct: Overexpressed on CHO K1, Ba/F3 or HEK293T cells; also called huCX3CR1; hCX3CR1
T2 sequence: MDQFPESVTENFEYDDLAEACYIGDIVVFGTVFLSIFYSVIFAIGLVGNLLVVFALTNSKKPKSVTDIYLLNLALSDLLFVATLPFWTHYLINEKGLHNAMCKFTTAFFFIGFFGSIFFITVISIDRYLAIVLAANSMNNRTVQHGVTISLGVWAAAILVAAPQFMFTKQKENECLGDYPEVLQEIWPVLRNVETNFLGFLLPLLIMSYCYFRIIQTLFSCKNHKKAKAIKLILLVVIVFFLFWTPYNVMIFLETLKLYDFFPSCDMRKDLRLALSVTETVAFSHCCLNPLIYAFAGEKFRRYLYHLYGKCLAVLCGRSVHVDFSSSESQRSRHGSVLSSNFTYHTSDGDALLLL


Tests used:
[1] = target: T1, cynomolgus CX3CR1; assay: flow cytometry on CHO K1 cyCX3CR1 cells, 30 uM HSA
Protocol: (§1) CHO cells overexpressing human or cynomolgus CX3CR1 were generated using techniques known in the art. Cells were harvested and resuspended in assay buffer (PBS, 2% FBS, 0.05% NaN3) and seeded separately in 384-well Bio-One V-bottom plates (Greiner, Cat. No. 781280), with a total of 2E04 cells seeded per well. After washing, serial dilutions of multivalent ISVD construct (starting from 250 nM, 3-fold dilution, 11 points, diluted in assay buffer), were added and incubated for 4 hours at 4° C. Binding was performed in the presence of 30 uM HSA (Sigma-Aldrich, Cat. No. A8763). Plates were then washed 3 times and cells were incubated with an anti-VHH mouse antibody (3300-fold diluted in assay buffer) for 30 minutes at 4′° C. […] Plates were finally washed 3 times and cells were resuspended in PI (Miltenyi Biotec, Cat. No. 130-093-233, 1000-fold diluted in assay buffer). Cell suspensions were analyzed with iQue Screener PLUS (Intellicyt). EC50s were estimated by dose response modelling. Curves were fit using 4 parameter logistic regression in GraphPad (GraphPad Software Inc.). A purified anti-human CX3CR1 antibody [K0124E1] (BioLegend, Cat. No. 355701/355702) was used as positive control to detect CX3CR1 expression on the cell surface.

[2] = target: T1, cynomolgus CX3CR1; assay: competition flow cytometry vs soluble huCX3CL1-AF647 on CHO K1 cyCX3CR1 cells, 30 uM HSA
[3] = target: T2, human CX3CR1; assay: competition flow cytometry vs soluble huCX3CL1-AF647 on CHO K1 huCX3CR1 cells, 30 uM HSA
[4] = target: T2, human CX3CR1; assay: flow cytometry on CHO K1 huCX3CR1 cells, 30 uM HSA
Protocol: as §1

[5] = target: T1, cynomolgus CX3CR1; assay: competition flow cytometry vs huCX3CL1-AF647 (2E-10 M) on CHO K1 cyno CX3CR1 cells, 30 uM HSA
Protocol: (§2) CHO cells overexpressing human or cyno CX3CR1 were generated using techniques known in the art. Cells were harvested and resuspended in assay buffer (PBS, 2% FBS, 0.05% NaN3). The cells were seeded in 384-well Bio-One V-bottom plates (Greiner, Cat. No. 781280), with a total of 2E04 cells seeded per well. After washing, ISVD proteins (starting from 250 nM, 3-fold dilution, 11 points, in assay buffer) were premixed with 30 μM HSA (Sigma-Aldrich, Cat. No. A8763) and human CX3CL1 labelled with AF647 (R&D Systems, Cat. No. 365-FR; labelled in house) at a final concentration of 2E-10 M (˜EC30) and added to the cells for 4 hours at 4° C. Plates were washed 3 times and cells were resuspended in PI (Miltenyi Biotec, Cat. No. 130-093-233, 1000-fold diluted in assay buffer). Cell suspensions were analysed with iQue Screener PLUS or iQue 3(Intellicyt). The IC50s were estimated by dose response modelling. Curves were fit using 4 parameter logistic regression in GraphPad (GraphPad Software Inc.).

[6] = target: T2, human CX3CR1; assay: competition flow cytometry vs huCX3CL1-AF647 (2E-10 M) on CHO K1 human CX3CR1 cells, 30 uM HSA
Protocol: as §2

| Binder | EC50 [1] | top [1] | % inhibition [2] | IC50 [2] | % inhibition [3] | IC50 [3] | EC50 [4] | top [4] | IC50 [5] | IC50 [6] |
| --- | --- | --- | --- | --- | --- | --- | --- | --- | --- | --- |
| A041600010 (VHH, Trivalent ISVD construct (two anti-CX3CR1 ISVDs, one anti-albumin ISVD); also called 66B02_SO (E1D)-9GS-ALB23002-9GS-66B02_SO-A) DVQLVESGGGSVQPGGSLRLSCAASGSIFSSTAMAWYRQAPGKRRDLVAAINTVGVTKYADSVKGRFTISRDNAKNTVYLQMNSLRPEDTALYYCTSDPRRGWDTRYWGQGTLVTVSSGGGGSGGGSEVQLVESGGGVVQPGGSLRLSCAASGFTFRSFGMSWVRQAPGKGPEWVSSISGSGSDTLYADSVKGRFTISRDNSKNTLYLQMNSLRPEDTALYYCTIGGSLSRSSQGTLVTVSSGGGGSGGGSEVQLVESGGGSVQPGGSLRLSCAASGSIFSSTAMAWYRQAPGKRRDLVAAINTVGVTKYADSVKGRFTISRDNAKNTVYLQMNSLRPEDTALYYCTSDPRRGWDTRYWGQGTLVTVSSA | 0.46 nM | 214000 | 113% | 2.4 nM | 94% | 3.8 nM | 0.41 nM | 22800 | – | – |
| A041600031 (VHH, Trivalent ISVD construct (two anti-CX3CR1 ISVDs, one anti-albumin ISVD), C-terminal alanine included in the entry; also called 66B02_SO (E1D)-9GS-ALB23002-9GS-54A12_SO-A) DVQLVESGGGSVQPGGSLRLSCAASGSIFSSTAMAWYRQAPGKRRDLVAAINTVGVTKYADSVKGRFTISRDNAKNTVYLQMNSLRPEDTALYYCTSDPRRGWDTRYWGQGTLVTVSSGGGGSGGGSEVQLVESGGGVVQPGGSLRLSCAASGFTFRSFGMSWVRQAPGKGPEWVSSISGSGSDTLYADSVKGRFTISRDNSKNTLYLQMNSLRPEDTALYYCTIGGSLSRSSQGTLVTVSSGGGGSGGGSEVQLVESGGGSVQPGGSLRLSCAASGSIFSSTAMAWYRQAPGKQRDLVAVISTVGITKYADSVKGRFTISRDNAKNTVYLQMNSLRPEDTALYYCTSDARRGWDTRYWGQGTLVTVSSA | 0.32 nM | 300000 | 105% | 1.2 nM | 96% | 2.1 nM | 0.3 nM | 31300 | – | – |
| A041600011 (VHH, Trivalent ISVD construct (two anti-CX3CR1 ISVDs, one anti-albumin ISVD), C-terminal alanine included in the entry; also called 66B02_SO (E1D)-9GS-66B02_SO-9GS-ALB23002-A) DVQLVESGGGSVQPGGSLRLSCAASGSIFSSTAMAWYRQAPGKRRDLVAAINTVGVTKYADSVKGRFTISRDNAKNTVYLQMNSLRPEDTALYYCTSDPRRGWDTRYWGQGTLVTVSSGGGGSGGGSEVQLVESGGGSVQPGGSLRLSCAASGSIFSSTAMAWYRQAPGKRRDLVAAINTVGVTKYADSVKGRFTISRDNAKNTVYLQMNSLRPEDTALYYCTSDPRRGWDTRYWGQGTLVTVSSGGGGSGGGSEVQLVESGGGVVQPGGSLRLSCAASGFTFRSFGMSWVRQAPGKGPEWVSSISGSGSDTLYADSVKGRFTISRDNSKNTLYLQMNSLRPEDTALYYCTIGGSLSRSSQGTLVTVSSA | 0.11 nM | 331000 | 111% | 1.2 nM | 94% | 0.66 nM | 0.079 nM | 44200 | – | – |
| A041600040 (VHH, Trivalent ISVD construct (two anti-CX3CR1 ISVDs, one anti-albumin ISVD), C-terminal alanine included in the entry; also called 66B02_SO (E1D)-9GS-54A12_SO-9GS-ALB23002-A) DVQLVESGGGSVQPGGSLRLSCAASGSIFSSTAMAWYRQAPGKRRDLVAAINTVGVTKYADSVKGRFTISRDNAKNTVYLQMNSLRPEDTALYYCTSDPRRGWDTRYWGQGTLVTVSSGGGGSGGGSEVQLVESGGGSVQPGGSLRLSCAASGSIFSSTAMAWYRQAPGKQRDLVAVISTVGITKYADSVKGRFTISRDNAKNTVYLQMNSLRPEDTALYYCTSDARRGWDTRYWGQGTLVTVSSGGGGSGGGSEVQLVESGGGVVQPGGSLRLSCAASGFTFRSFGMSWVRQAPGKGPEWVSSISGSGSDTLYADSVKGRFTISRDNSKNTLYLQMNSLRPEDTALYYCTIGGSLSRSSQGTLVTVSSA | 0.14 nM | 363000 | 117% | 0.62 nM | 101% | 0.99 nM | 0.1 nM | 42200 | – | – |
| A041600042 (VHH, Trivalent ISVD construct (two anti-CX3CR1 ISVDs, one anti-albumin ISVD), C-terminal alanine included in the entry; also called 66B02_SO (E1D)-20GS-66B02_SO-20GS-ALB23002-A) DVQLVESGGGSVQPGGSLRLSCAASGSIFSSTAMAWYRQAPGKRRDLVAAINTVGVTKYADSVKGRFTISRDNAKNTVYLQMNSLRPEDTALYYCTSDPRRGWDTRYWGQGTLVTVSSGGGGSGGGGSGGGGSGGGGSEVQLVESGGGSVQPGGSLRLSCAASGSIFSSTAMAWYRQAPGKRRDLVAAINTVGVTKYADSVKGRFTISRDNAKNTVYLQMNSLRPEDTALYYCTSDPRRGWDTRYWGQGTLVTVSSGGGGSGGGGSGGGGSGGGGSEVQLVESGGGVVQPGGSLRLSCAASGFTFRSFGMSWVRQAPGKGPEWVSSISGSGSDTLYADSVKGRFTISRDNSKNTLYLQMNSLRPEDTALYYCTIGGSLSRSSQGTLVTVSSA | 0.12 nM | 373000 | 104% | 0.67 nM | 95% | 1.4 nM | 0.13 nM | 40000 | – | – |
| 66B02_SO (VHH, Monovalent anti-CX3CR1 ISVD; The oligomerization and Tagg assays used a 3xFLAG-His6 tagged form made in E. coli) VHH: EVQLVESGGGSVQPGGSLRLSCAASGSIFSSTAMAWYRQAPGKRRDLVAAINTVGVTKYADSVKGRFTISRDNAKNTVYLQMNSLRPEDTALYYCTSDPRRGWDTRYWGQGTLVTVSS | – | – | – | – | – | – | – | – | 2.9 nM | 0.48 nM |
| 54A12_SO (VHH, Monovalent anti-CX3CR1 ISVD; The oligomerization and Tagg assays used a 3xFLAG-His6 tagged form made in E. coli) VHH: EVQLVESGGGSVQPGGSLRLSCAASGSIFSSTAMAWYRQAPGKQRDLVAVISTVGITKYADSVKGRFTISRDNAKNTVYLQMNSLRPEDTALYYCTSDARRGWDTRYWGQGTLVTVSS | – | – | – | – | – | – | – | – | 6 nM | 0.89 nM |
| A041600026 (VHH, Trivalent ISVD construct; also called 66B02_SO (E1D)-20GS-ALB23002-20GS-66B02_SO-A) DVQLVESGGGSVQPGGSLRLSCAASGSIFSSTAMAWYRQAPGKRRDLVAAINTVGVTKYADSVKGRFTISRDNAKNTVYLQMNSLRPEDTALYYCTSDPRRGWDTRYWGQGTLVTVSSGGGGSGGGGSGGGGSGGGGSEVQLVESGGGVVQPGGSLRLSCAASGFTFRSFGMSWVRQAPGKGPEWVSSISGSGSDTLYADSVKGRFTISRDNSKNTLYLQMNSLRPEDTALYYCTIGGSLSRSSQGTLVTVSSGGGGSGGGGSGGGGSGGGGSEVQLVESGGGSVQPGGSLRLSCAASGSIFSSTAMAWYRQAPGKRRDLVAAINTVGVTKYADSVKGRFTISRDNAKNTVYLQMNSLRPEDTALYYCTSDPRRGWDTRYWGQGTLVTVSSA | 0.25 nM | 290000 | 104% | 1.2 nM | 102% | 1.1 nM | 0.29 nM | 35600 | – | – |
